Laboratory results from patent publication US20210388087A1 (Chugai, published 2021).

molecular target: T1, Human CD137 ECD (human); test: Biacore SPR, vs parent H183/L072
T1 construct: entry includes C-terminal His-tag and biotin acceptor peptide; also called human CD137 extracellular domain; 4-1BB
T1 sequence (chain, as listed by the source limits assumed): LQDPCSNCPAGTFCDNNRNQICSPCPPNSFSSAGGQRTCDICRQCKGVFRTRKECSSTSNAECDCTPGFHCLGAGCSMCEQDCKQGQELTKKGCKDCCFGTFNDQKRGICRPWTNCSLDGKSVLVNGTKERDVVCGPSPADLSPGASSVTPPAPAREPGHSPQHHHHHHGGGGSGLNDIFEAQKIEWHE

Binder | fold change of affinity
H183/L072 VL T31Y (antibody, name in Kabat numbering, V domains shown, Dual-Ig) VH: QVQLVESGGGLVQPGRSLRLSCAASGFTFSNAWMHWVRQAPGKGLEWVAQIKDKGNAYAAYYAPSVKGRFTISRDDSKNSIYLQMNSLKTEDTAVYYCHYVHYASASTVLPAFGVDAWGQGTTVTVSS VL: DIVMTQSPLSLPVTPGEPASISCQASQELVHMNRNYYLHWYQQKPGQAPRLLIYKVSNRFPGVPDRFSGSGSGTDFTLKISRVEAEDVGVYYCAQGTSVPFTFGQGTKLEIK | 0.1 fold
H183/L072 VL T97E (antibody, name in Kabat numbering, V domains shown, Dual-Ig) VH: QVQLVESGGGLVQPGRSLRLSCAASGFTFSNAWMHWVRQAPGKGLEWVAQIKDKGNAYAAYYAPSVKGRFTISRDDSKNSIYLQMNSLKTEDTAVYYCHYVHYASASTVLPAFGVDAWGQGTTVTVSS VL: DIVMTQSPLSLPVTPGEPASISCQASQELVHMNRNTYLHWYQQKPGQAPRLLIYKVSNRFPGVPDRFSGSGSGTDFTLKISRVEAEDVGVYYCAQGTSVPFEFGQGTKLEIK | 0.4 fold
H183/L072 VL T92P (antibody, name in Kabat numbering, V domains shown, Dual-Ig) VH: QVQLVESGGGLVQPGRSLRLSCAASGFTFSNAWMHWVRQAPGKGLEWVAQIKDKGNAYAAYYAPSVKGRFTISRDDSKNSIYLQMNSLKTEDTAVYYCHYVHYASASTVLPAFGVDAWGQGTTVTVSS VL: DIVMTQSPLSLPVTPGEPASISCQASQELVHMNRNTYLHWYQQKPGQAPRLLIYKVSNRFPGVPDRFSGSGSGTDFTLKISRVEAEDVGVYYCAQGPSVPFTFGQGTKLEIK | 0 fold
H183/L072 VL T92V (antibody, name in Kabat numbering, V domains shown, Dual-Ig) VH: QVQLVESGGGLVQPGRSLRLSCAASGFTFSNAWMHWVRQAPGKGLEWVAQIKDKGNAYAAYYAPSVKGRFTISRDDSKNSIYLQMNSLKTEDTAVYYCHYVHYASASTVLPAFGVDAWGQGTTVTVSS VL: DIVMTQSPLSLPVTPGEPASISCQASQELVHMNRNTYLHWYQQKPGQAPRLLIYKVSNRFPGVPDRFSGSGSGTDFTLKISRVEAEDVGVYYCAQGVSVPFTFGQGTKLEIK | 0.3 fold
H183/L072 VL T92K (antibody, name in Kabat numbering, V domains shown, Dual-Ig) VH: QVQLVESGGGLVQPGRSLRLSCAASGFTFSNAWMHWVRQAPGKGLEWVAQIKDKGNAYAAYYAPSVKGRFTISRDDSKNSIYLQMNSLKTEDTAVYYCHYVHYASASTVLPAFGVDAWGQGTTVTVSS VL: DIVMTQSPLSLPVTPGEPASISCQASQELVHMNRNTYLHWYQQKPGQAPRLLIYKVSNRFPGVPDRFSGSGSGTDFTLKISRVEAEDVGVYYCAQGKSVPFTFGQGTKLEIK | 0 fold
H183/L072 VL T92A (antibody, name in Kabat numbering, V domains shown, Dual-Ig) VH: QVQLVESGGGLVQPGRSLRLSCAASGFTFSNAWMHWVRQAPGKGLEWVAQIKDKGNAYAAYYAPSVKGRFTISRDDSKNSIYLQMNSLKTEDTAVYYCHYVHYASASTVLPAFGVDAWGQGTTVTVSS VL: DIVMTQSPLSLPVTPGEPASISCQASQELVHMNRNTYLHWYQQKPGQAPRLLIYKVSNRFPGVPDRFSGSGSGTDFTLKISRVEAEDVGVYYCAQGASVPFTFGQGTKLEIK | 0.5 fold
H183/L072 VL T97A (antibody, name in Kabat numbering, V domains shown, Dual-Ig) VH: QVQLVESGGGLVQPGRSLRLSCAASGFTFSNAWMHWVRQAPGKGLEWVAQIKDKGNAYAAYYAPSVKGRFTISRDDSKNSIYLQMNSLKTEDTAVYYCHYVHYASASTVLPAFGVDAWGQGTTVTVSS VL: DIVMTQSPLSLPVTPGEPASISCQASQELVHMNRNTYLHWYQQKPGQAPRLLIYKVSNRFPGVPDRFSGSGSGTDFTLKISRVEAEDVGVYYCAQGTSVPFAFGQGTKLEIK | 0.6 fold
H183/L072 VL T92G (antibody, name in Kabat numbering, V domains shown, Dual-Ig) VH: QVQLVESGGGLVQPGRSLRLSCAASGFTFSNAWMHWVRQAPGKGLEWVAQIKDKGNAYAAYYAPSVKGRFTISRDDSKNSIYLQMNSLKTEDTAVYYCHYVHYASASTVLPAFGVDAWGQGTTVTVSS VL: DIVMTQSPLSLPVTPGEPASISCQASQELVHMNRNTYLHWYQQKPGQAPRLLIYKVSNRFPGVPDRFSGSGSGTDFTLKISRVEAEDVGVYYCAQGGSVPFTFGQGTKLEIK | 0.4 fold
H183/L072 VL T92M (antibody, name in Kabat numbering, V domains shown, Dual-Ig) VH: QVQLVESGGGLVQPGRSLRLSCAASGFTFSNAWMHWVRQAPGKGLEWVAQIKDKGNAYAAYYAPSVKGRFTISRDDSKNSIYLQMNSLKTEDTAVYYCHYVHYASASTVLPAFGVDAWGQGTTVTVSS VL: DIVMTQSPLSLPVTPGEPASISCQASQELVHMNRNTYLHWYQQKPGQAPRLLIYKVSNRFPGVPDRFSGSGSGTDFTLKISRVEAEDVGVYYCAQGMSVPFTFGQGTKLEIK | 0.4 fold
H183/L072 VL T92E (antibody, name in Kabat numbering, V domains shown, Dual-Ig) VH: QVQLVESGGGLVQPGRSLRLSCAASGFTFSNAWMHWVRQAPGKGLEWVAQIKDKGNAYAAYYAPSVKGRFTISRDDSKNSIYLQMNSLKTEDTAVYYCHYVHYASASTVLPAFGVDAWGQGTTVTVSS VL: DIVMTQSPLSLPVTPGEPASISCQASQELVHMNRNTYLHWYQQKPGQAPRLLIYKVSNRFPGVPDRFSGSGSGTDFTLKISRVEAEDVGVYYCAQGESVPFTFGQGTKLEIK | 0 fold

Second part, the binder after the results:

fold change of affinity | Binder
0.2 fold | H183/L072 VL T92L (antibody, name in Kabat numbering, V domains shown, Dual-Ig) VH: QVQLVESGGGLVQPGRSLRLSCAASGFTFSNAWMHWVRQAPGKGLEWVAQIKDKGNAYAAYYAPSVKGRFTISRDDSKNSIYLQMNSLKTEDTAVYYCHYVHYASASTVLPAFGVDAWGQGTTVTVSS VL: DIVMTQSPLSLPVTPGEPASISCQASQELVHMNRNTYLHWYQQKPGQAPRLLIYKVSNRFPGVPDRFSGSGSGTDFTLKISRVEAEDVGVYYCAQGLSVPFTFGQGTKLEIK
0 fold | H183/L072 VL T92S (antibody, name in Kabat numbering, V domains shown, Dual-Ig) VH: QVQLVESGGGLVQPGRSLRLSCAASGFTFSNAWMHWVRQAPGKGLEWVAQIKDKGNAYAAYYAPSVKGRFTISRDDSKNSIYLQMNSLKTEDTAVYYCHYVHYASASTVLPAFGVDAWGQGTTVTVSS VL: DIVMTQSPLSLPVTPGEPASISCQASQELVHMNRNTYLHWYQQKPGQAPRLLIYKVSNRFPGVPDRFSGSGSGTDFTLKISRVEAEDVGVYYCAQGSSVPFTFGQGTKLEIK
0 fold | H183/L072 VL T92N (antibody, name in Kabat numbering, V domains shown, Dual-Ig) VH: QVQLVESGGGLVQPGRSLRLSCAASGFTFSNAWMHWVRQAPGKGLEWVAQIKDKGNAYAAYYAPSVKGRFTISRDDSKNSIYLQMNSLKTEDTAVYYCHYVHYASASTVLPAFGVDAWGQGTTVTVSS VL: DIVMTQSPLSLPVTPGEPASISCQASQELVHMNRNTYLHWYQQKPGQAPRLLIYKVSNRFPGVPDRFSGSGSGTDFTLKISRVEAEDVGVYYCAQGNSVPFTFGQGTKLEIK
0 fold | H183/L072 VL T92H (antibody, name in Kabat numbering, V domains shown, Dual-Ig) VH: QVQLVESGGGLVQPGRSLRLSCAASGFTFSNAWMHWVRQAPGKGLEWVAQIKDKGNAYAAYYAPSVKGRFTISRDDSKNSIYLQMNSLKTEDTAVYYCHYVHYASASTVLPAFGVDAWGQGTTVTVSS VL: DIVMTQSPLSLPVTPGEPASISCQASQELVHMNRNTYLHWYQQKPGQAPRLLIYKVSNRFPGVPDRFSGSGSGTDFTLKISRVEAEDVGVYYCAQGHSVPFTFGQGTKLEIK
0 fold | H183/L072 VL T92W (antibody, name in Kabat numbering, V domains shown, Dual-Ig) VH: QVQLVESGGGLVQPGRSLRLSCAASGFTFSNAWMHWVRQAPGKGLEWVAQIKDKGNAYAAYYAPSVKGRFTISRDDSKNSIYLQMNSLKTEDTAVYYCHYVHYASASTVLPAFGVDAWGQGTTVTVSS VL: DIVMTQSPLSLPVTPGEPASISCQASQELVHMNRNTYLHWYQQKPGQAPRLLIYKVSNRFPGVPDRFSGSGSGTDFTLKISRVEAEDVGVYYCAQGWSVPFTFGQGTKLEIK
0 fold | H183/L072 VL T97D (antibody, name in Kabat numbering, V domains shown, Dual-Ig) VH: QVQLVESGGGLVQPGRSLRLSCAASGFTFSNAWMHWVRQAPGKGLEWVAQIKDKGNAYAAYYAPSVKGRFTISRDDSKNSIYLQMNSLKTEDTAVYYCHYVHYASASTVLPAFGVDAWGQGTTVTVSS VL: DIVMTQSPLSLPVTPGEPASISCQASQELVHMNRNTYLHWYQQKPGQAPRLLIYKVSNRFPGVPDRFSGSGSGTDFTLKISRVEAEDVGVYYCAQGTSVPFDFGQGTKLEIK
0 fold | H183/L072 VL T92D (antibody, name in Kabat numbering, V domains shown, Dual-Ig) VH: QVQLVESGGGLVQPGRSLRLSCAASGFTFSNAWMHWVRQAPGKGLEWVAQIKDKGNAYAAYYAPSVKGRFTISRDDSKNSIYLQMNSLKTEDTAVYYCHYVHYASASTVLPAFGVDAWGQGTTVTVSS VL: DIVMTQSPLSLPVTPGEPASISCQASQELVHMNRNTYLHWYQQKPGQAPRLLIYKVSNRFPGVPDRFSGSGSGTDFTLKISRVEAEDVGVYYCAQGDSVPFTFGQGTKLEIK
0 fold | H183/L072 VL T92R (antibody, name in Kabat numbering, V domains shown, Dual-Ig) VH: QVQLVESGGGLVQPGRSLRLSCAASGFTFSNAWMHWVRQAPGKGLEWVAQIKDKGNAYAAYYAPSVKGRFTISRDDSKNSIYLQMNSLKTEDTAVYYCHYVHYASASTVLPAFGVDAWGQGTTVTVSS VL: DIVMTQSPLSLPVTPGEPASISCQASQELVHMNRNTYLHWYQQKPGQAPRLLIYKVSNRFPGVPDRFSGSGSGTDFTLKISRVEAEDVGVYYCAQGRSVPFTFGQGTKLEIK
0 fold | H183/L072 VL T92Q (antibody, name in Kabat numbering, V domains shown, Dual-Ig) VH: QVQLVESGGGLVQPGRSLRLSCAASGFTFSNAWMHWVRQAPGKGLEWVAQIKDKGNAYAAYYAPSVKGRFTISRDDSKNSIYLQMNSLKTEDTAVYYCHYVHYASASTVLPAFGVDAWGQGTTVTVSS VL: DIVMTQSPLSLPVTPGEPASISCQASQELVHMNRNTYLHWYQQKPGQAPRLLIYKVSNRFPGVPDRFSGSGSGTDFTLKISRVEAEDVGVYYCAQGQSVPFTFGQGTKLEIK
0 fold | H183/L072 VL T92F (antibody, name in Kabat numbering, V domains shown, Dual-Ig) VH: QVQLVESGGGLVQPGRSLRLSCAASGFTFSNAWMHWVRQAPGKGLEWVAQIKDKGNAYAAYYAPSVKGRFTISRDDSKNSIYLQMNSLKTEDTAVYYCHYVHYASASTVLPAFGVDAWGQGTTVTVSS VL: DIVMTQSPLSLPVTPGEPASISCQASQELVHMNRNTYLHWYQQKPGQAPRLLIYKVSNRFPGVPDRFSGSGSGTDFTLKISRVEAEDVGVYYCAQGFSVPFTFGQGTKLEIK
0.1 fold | H183/L072 VL T92I (antibody, name in Kabat numbering, V domains shown, Dual-Ig) VH: QVQLVESGGGLVQPGRSLRLSCAASGFTFSNAWMHWVRQAPGKGLEWVAQIKDKGNAYAAYYAPSVKGRFTISRDDSKNSIYLQMNSLKTEDTAVYYCHYVHYASASTVLPAFGVDAWGQGTTVTVSS VL: DIVMTQSPLSLPVTPGEPASISCQASQELVHMNRNTYLHWYQQKPGQAPRLLIYKVSNRFPGVPDRFSGSGSGTDFTLKISRVEAEDVGVYYCAQGISVPFTFGQGTKLEIK
